Results reported in paper PMC12990809.

Key:
Experiment in all cases: pulldown
[1] = target: T1, DDB_G0286331 (Dictyostelium discoideum) (UniProt Q54M41); conditions: 20 nM protein, 1.5 uM RNA pool; 20 mM HEPES pH 7.8, 70 mM KCl, 10 mM NaCl, 10% glycerol, 2 mM DTT, 0.1 ug/uL BSA; 30 min, 4 C
T1 sequence: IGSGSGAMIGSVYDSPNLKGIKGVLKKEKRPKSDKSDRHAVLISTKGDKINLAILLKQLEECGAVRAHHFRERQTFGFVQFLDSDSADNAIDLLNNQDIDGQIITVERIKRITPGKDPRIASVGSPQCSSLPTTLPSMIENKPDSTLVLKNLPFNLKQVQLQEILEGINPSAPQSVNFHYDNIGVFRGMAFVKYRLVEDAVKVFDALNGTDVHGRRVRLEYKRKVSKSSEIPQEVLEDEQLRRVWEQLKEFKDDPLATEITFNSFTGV

[2] = target: T2, PK14112.1 (Cannabis sativa) (UniProt A0A7J6DPE0); conditions: 20 nM protein, 1.5 uM RNA pool; 20 mM HEPES pH 7.8, 70 mM KCl, 10 mM NaCl, 10% glycerol, 2 mM DTT, 0.1 ug/uL BSA; 30 min, 4 C
T2 sequence: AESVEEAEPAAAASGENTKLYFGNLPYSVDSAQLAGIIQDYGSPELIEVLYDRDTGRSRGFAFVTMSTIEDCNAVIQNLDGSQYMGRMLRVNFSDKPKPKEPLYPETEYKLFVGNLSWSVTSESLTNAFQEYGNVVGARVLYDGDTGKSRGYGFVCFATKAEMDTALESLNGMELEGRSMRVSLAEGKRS

[3] = target: T3, PK26404.1 L183S (Cannabis sativa) (UniProt A0A7J6ELY7); conditions: 20 nM protein, 1.5 uM RNA pool; 20 mM HEPES pH 7.8, 70 mM KCl, 10 mM NaCl, 10% glycerol, 2 mM DTT, 0.1 ug/uL BSA; 30 min, 4 C
T3 sequence: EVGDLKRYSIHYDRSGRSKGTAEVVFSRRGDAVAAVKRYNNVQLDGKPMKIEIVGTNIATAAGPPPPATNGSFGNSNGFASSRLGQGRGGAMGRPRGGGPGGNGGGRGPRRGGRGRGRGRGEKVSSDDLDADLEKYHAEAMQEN

[4] = target: T4, MBNL2 (Homo sapiens) (UniProt Q5VZF2); conditions: 20 nM protein, 1.5 uM RNA pool; 20 mM HEPES pH 7.8, 70 mM KCl, 10 mM NaCl, 10% glycerol, 2 mM DTT, 0.1 ug/uL BSA; 30 min, 4 C
T4 sequence: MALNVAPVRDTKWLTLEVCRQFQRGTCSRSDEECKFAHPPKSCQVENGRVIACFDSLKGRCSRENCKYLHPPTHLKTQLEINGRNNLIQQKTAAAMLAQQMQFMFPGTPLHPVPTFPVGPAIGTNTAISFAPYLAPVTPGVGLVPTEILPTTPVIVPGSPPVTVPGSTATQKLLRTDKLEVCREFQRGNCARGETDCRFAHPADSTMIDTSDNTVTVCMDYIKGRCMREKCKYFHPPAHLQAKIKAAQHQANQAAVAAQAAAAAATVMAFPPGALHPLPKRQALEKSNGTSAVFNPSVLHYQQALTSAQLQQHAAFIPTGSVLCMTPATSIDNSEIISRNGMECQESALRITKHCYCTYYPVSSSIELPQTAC

[5] = target: T5, rsp-2 (Caenorhabditis elegans) (UniProt Q23120); conditions: 20 nM protein, 1.5 uM RNA pool; 20 mM HEPES pH 7.8, 70 mM KCl, 10 mM NaCl, 10% glycerol, 2 mM DTT, 0.1 ug/uL BSA; 30 min, 4 C
T5 sequence: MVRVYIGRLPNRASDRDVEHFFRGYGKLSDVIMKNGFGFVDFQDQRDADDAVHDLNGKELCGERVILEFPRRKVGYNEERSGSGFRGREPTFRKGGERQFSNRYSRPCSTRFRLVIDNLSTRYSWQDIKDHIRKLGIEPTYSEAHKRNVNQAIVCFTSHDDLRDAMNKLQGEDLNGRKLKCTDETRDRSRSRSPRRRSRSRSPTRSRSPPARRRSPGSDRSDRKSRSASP

[6] = target: HNRNPA1L2 (Homo sapiens) (UniProt Q32P51); conditions: 20 nM protein, 1.5 uM RNA pool; 20 mM HEPES pH 7.8, 70 mM KCl, 10 mM NaCl, 10% glycerol, 2 mM DTT, 0.1 ug/uL BSA; 30 min, 4 C (protocol of this paper; not …); cited from earlier work
[7] = target: HNRNPA2B1 (Homo sapiens) (UniProt P22626); conditions: 20 nM protein, 1.5 uM RNA pool; 20 mM HEPES pH 7.8, 70 mM KCl, 10 mM NaCl, 10% glycerol, 2 mM DTT, 0.1 ug/uL BSA; 30 min, 4 C (protocol of this paper; not …); cited from earlier work
[8] = target: T6, Smp_032060 (Schistosoma mansoni) (UniProt G4LYM0); conditions: 20 nM protein, 1.5 uM RNA pool; 20 mM HEPES pH 7.8, 70 mM KCl, 10 mM NaCl, 10% glycerol, 2 mM DTT, 0.1 ug/uL BSA; 30 min, 4 C
T6 sequence: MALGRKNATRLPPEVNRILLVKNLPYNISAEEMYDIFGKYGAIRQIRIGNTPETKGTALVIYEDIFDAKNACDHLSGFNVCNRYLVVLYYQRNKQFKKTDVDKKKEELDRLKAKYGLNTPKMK

[9] = target: T7, DDB_G0270634 (Dictyostelium discoideum) (UniProt Q55D63); conditions: 20 nM protein, 1.5 uM RNA pool; 20 mM HEPES pH 7.8, 70 mM KCl, 10 mM NaCl, 10% glycerol, 2 mM DTT, 0.1 ug/uL BSA; 30 min, 4 C
T7 sequence: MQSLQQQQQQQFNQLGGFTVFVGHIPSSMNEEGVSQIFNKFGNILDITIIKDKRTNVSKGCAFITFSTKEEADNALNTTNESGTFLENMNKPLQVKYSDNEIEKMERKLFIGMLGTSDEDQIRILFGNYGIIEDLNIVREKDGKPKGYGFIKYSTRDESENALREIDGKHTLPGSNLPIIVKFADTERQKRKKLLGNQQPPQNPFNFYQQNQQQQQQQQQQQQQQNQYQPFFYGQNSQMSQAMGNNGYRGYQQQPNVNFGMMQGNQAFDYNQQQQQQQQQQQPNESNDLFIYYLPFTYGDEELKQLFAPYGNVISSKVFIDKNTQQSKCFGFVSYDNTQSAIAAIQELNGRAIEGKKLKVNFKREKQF

[10] = target: T8, PK15181.1 (Cannabis sativa) (UniProt A0A7J6E558); conditions: 20 nM protein, 1.5 uM RNA pool; 20 mM HEPES pH 7.8, 70 mM KCl, 10 mM NaCl, 10% glycerol, 2 mM DTT, 0.1 ug/uL BSA; 30 min, 4 C
T8 sequence: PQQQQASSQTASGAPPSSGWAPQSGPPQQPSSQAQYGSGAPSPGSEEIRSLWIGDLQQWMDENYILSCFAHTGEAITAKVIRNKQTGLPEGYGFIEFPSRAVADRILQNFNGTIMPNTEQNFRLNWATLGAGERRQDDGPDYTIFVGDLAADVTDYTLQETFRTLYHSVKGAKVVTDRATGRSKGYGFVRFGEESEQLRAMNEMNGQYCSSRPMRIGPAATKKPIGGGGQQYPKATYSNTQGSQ

HNRNPA1L2 (Homo sapiens), sequence (Q32P51 1-226): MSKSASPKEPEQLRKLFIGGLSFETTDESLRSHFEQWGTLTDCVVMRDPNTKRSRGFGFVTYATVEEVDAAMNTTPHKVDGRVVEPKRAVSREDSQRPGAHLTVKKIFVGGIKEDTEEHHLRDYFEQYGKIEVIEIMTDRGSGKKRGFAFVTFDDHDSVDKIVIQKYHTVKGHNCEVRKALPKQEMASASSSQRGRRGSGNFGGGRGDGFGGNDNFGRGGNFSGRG
HNRNPA2B1 (Homo sapiens), sequence (P22626 1-233): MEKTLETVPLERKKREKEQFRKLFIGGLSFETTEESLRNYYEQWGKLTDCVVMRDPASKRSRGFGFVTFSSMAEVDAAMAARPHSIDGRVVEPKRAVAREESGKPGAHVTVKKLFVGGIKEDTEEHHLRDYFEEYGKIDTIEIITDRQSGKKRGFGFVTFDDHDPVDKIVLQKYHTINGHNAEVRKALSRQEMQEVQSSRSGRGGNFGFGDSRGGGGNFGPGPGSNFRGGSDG

Question: With AUAAAC [RNAcompete motif RNCMPT00351] as the substance, how does the binding signal (z-score (mean of top ten 7-mers)) [1] read?
Answer: Its binding signal (z-score (mean of top ten 7-mers)) is 8.36.

Question: With GAUACUG [RNAcompete motif RNCMPT00392] as the substance, how does the binding signal (z-score (mean of top ten 7-mers)) [2] read?
Answer: The binding signal (z-score (mean of top ten 7-mers)) was 8.21.

Question: Which binding signal (z-score (mean of top ten 7-mers)) [3] does the source give for GCGCGC [RNAcompete motif RNCMPT00364] here?
Answer: The binding signal (z-score (mean of top ten 7-mers)) was 6.8.

Question: With GCUUGC [RNAcompete motif RNCMPT00401] as the substance, how does the binding signal (z-score (mean of top ten 7-mers)) [4] read?
Answer: The binding signal (z-score (mean of top ten 7-mers)) was 10.7.

Question: Which binding signal (z-score (mean of top ten 7-mers)) [5] does the source give for GGAGGAG [RNAcompete motif RNCMPT00352] here?
Answer: The binding signal (z-score (mean of top ten 7-mers)) was 9.21.

Question: With UAGGG [RNAcompete motif RNCMPT00023] as the substance, how does the binding signal (z-score (mean of top ten 7-mers)) [6] read?
Answer: The binding signal (z-score (mean of top ten 7-mers)) was 7.23.

Question: With UAGGGA [RNAcompete motif RNCMPT00024] as the substance, how does the binding signal (z-score (mean of top ten 7-mers)) [7] read?
Answer: The binding signal (z-score (mean of top ten 7-mers)) was 8.86.

Question: Which binding signal (z-score (mean of top ten 7-mers)) [8] does the source give for UUUUNCC [RNAcompete motif RNCMPT00396] here?
Answer: Its binding signal (z-score (mean of top ten 7-mers)) is 9.57.

Question: For UUUUUGU [RNAcompete motif RNCMPT00399], which binding signal (z-score (mean of top ten 7-mers)) [9] is on record?
Answer: The binding signal (z-score (mean of top ten 7-mers)) was 8.63.

Question: Which binding signal (z-score (mean of top ten 7-mers)) [10] does the source give for UUUUUU [RNAcompete motif RNCMPT00345] here?
Answer: Its binding signal (z-score (mean of top ten 7-mers)) is 9.71.
